Test results: US20250262210A1 (TRUSTEES OF COLUMBIA UNIVERSITY IN THE CITY OF NEW YORK, published 2025)

Tests used:
CRYBG1 = CRYBG1 (human, UniProt Q9Y4K1 1-2131, limits assumed); assay: IP/MS, LZTR1 wild type-FLAG, U87
Outline: (§1)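 Extracted peptides in 3% acetonitrile/0.1% formic acid ran on a 50 cm C18 column into an Orbitrap Fusion, with MaxQuant identification and spectral counting.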

POLR3A = biological target: T1, POLR3A (human, UniProt O14802 1-1390); assay: IP/MS, LZTR1 wild type-FLAG, U87
T1 sequence (looked up): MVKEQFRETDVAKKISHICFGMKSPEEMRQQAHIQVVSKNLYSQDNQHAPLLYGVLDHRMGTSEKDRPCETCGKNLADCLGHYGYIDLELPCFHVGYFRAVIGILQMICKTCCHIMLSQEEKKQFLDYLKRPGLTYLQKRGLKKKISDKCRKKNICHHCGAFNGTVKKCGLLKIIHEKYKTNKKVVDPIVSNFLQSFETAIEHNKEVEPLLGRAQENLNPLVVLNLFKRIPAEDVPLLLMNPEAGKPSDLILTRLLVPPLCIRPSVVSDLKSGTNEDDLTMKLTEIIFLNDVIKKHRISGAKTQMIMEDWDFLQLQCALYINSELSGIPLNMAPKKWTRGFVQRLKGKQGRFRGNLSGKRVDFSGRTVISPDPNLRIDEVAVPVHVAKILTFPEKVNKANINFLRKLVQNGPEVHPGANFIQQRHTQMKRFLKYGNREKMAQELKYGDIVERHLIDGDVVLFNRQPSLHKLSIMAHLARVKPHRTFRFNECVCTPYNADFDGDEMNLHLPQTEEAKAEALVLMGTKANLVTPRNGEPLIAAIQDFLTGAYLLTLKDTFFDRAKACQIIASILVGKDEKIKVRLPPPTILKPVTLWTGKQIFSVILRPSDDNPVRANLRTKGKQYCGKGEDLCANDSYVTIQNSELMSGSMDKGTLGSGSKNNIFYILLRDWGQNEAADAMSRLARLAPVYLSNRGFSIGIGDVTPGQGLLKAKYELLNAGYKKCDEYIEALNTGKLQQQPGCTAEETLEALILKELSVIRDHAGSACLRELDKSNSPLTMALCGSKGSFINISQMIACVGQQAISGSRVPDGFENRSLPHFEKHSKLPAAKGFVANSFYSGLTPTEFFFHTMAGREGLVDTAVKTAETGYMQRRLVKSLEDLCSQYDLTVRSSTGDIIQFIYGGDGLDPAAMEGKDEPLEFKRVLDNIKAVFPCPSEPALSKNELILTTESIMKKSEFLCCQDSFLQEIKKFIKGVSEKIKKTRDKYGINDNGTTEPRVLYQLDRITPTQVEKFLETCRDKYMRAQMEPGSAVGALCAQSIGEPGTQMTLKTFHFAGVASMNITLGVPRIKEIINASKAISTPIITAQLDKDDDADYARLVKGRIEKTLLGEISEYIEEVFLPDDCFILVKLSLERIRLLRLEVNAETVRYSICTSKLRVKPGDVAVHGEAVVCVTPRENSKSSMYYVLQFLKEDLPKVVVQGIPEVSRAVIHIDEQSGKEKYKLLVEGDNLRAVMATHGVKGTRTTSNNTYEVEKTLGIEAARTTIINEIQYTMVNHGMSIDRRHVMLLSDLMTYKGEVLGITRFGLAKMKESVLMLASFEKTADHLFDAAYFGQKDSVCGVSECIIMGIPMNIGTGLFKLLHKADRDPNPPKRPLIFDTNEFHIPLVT
Outline: as §1

Chain of CRYBG1 (Q9Y4K1 whole entry, the tested form may be a part): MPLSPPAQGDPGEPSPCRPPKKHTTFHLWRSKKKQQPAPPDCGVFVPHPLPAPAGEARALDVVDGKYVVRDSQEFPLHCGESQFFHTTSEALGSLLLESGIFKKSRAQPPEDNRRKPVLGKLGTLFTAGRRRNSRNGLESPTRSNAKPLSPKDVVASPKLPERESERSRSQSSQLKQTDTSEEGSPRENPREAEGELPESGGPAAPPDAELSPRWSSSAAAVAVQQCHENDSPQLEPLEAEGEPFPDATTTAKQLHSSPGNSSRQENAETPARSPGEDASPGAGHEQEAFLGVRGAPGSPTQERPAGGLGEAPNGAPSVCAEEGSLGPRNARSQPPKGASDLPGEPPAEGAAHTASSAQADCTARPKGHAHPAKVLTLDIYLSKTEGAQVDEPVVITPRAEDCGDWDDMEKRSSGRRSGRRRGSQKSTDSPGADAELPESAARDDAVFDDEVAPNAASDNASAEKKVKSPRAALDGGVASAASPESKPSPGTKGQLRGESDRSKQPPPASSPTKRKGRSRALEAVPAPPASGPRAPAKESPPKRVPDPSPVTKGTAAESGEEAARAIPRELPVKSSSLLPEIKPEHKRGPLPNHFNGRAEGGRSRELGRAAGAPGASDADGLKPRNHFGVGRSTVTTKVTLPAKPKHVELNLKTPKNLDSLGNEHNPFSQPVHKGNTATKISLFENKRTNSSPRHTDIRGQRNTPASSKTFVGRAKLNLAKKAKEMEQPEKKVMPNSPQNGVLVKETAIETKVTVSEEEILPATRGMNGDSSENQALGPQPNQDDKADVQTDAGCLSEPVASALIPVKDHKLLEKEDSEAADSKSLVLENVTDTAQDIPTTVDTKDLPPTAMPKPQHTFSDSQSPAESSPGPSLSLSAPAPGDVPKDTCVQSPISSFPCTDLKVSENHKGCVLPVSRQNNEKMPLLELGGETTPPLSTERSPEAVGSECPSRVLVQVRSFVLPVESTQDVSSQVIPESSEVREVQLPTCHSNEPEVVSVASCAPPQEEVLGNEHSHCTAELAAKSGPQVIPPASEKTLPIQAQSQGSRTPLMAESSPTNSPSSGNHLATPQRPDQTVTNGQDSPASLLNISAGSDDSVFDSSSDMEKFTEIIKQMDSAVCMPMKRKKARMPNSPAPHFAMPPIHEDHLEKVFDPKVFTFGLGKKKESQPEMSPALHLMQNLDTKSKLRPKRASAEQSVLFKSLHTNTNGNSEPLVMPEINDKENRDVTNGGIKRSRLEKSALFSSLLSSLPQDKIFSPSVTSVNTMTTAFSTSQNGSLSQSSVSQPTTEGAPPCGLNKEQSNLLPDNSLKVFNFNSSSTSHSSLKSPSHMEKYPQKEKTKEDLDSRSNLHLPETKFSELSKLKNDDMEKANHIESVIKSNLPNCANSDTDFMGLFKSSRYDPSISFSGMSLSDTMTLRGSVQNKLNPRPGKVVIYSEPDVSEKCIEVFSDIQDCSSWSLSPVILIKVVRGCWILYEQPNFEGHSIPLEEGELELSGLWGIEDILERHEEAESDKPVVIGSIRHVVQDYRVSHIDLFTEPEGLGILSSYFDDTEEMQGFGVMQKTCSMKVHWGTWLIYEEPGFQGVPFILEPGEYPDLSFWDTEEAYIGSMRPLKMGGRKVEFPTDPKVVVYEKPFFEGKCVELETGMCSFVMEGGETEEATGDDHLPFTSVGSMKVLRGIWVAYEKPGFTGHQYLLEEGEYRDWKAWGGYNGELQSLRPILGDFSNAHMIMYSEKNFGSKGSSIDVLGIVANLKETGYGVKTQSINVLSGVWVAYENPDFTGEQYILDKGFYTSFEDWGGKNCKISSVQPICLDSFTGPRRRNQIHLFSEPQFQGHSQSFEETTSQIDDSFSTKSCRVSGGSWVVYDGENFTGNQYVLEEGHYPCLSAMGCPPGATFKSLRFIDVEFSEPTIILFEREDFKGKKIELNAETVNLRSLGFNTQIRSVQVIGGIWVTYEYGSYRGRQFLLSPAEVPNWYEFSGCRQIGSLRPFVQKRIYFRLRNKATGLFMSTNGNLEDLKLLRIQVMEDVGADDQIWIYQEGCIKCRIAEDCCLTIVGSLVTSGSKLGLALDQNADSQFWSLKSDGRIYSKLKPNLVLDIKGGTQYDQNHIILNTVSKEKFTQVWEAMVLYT

B1: LZTR1-FLAG (other, human, UniProt Q8N653 1-840, looked up)
chain: MAGPGSTGGQIGAAALAGGARSKVAPSVDFDHSCSDSVEYLTLNFGPFETVHRWRRLPPCDEFVGARRSKHTVVAYKDAIYVFGGDNGKTMLNDLLRFDVKDCSWCRAFTTGTPPAPRYHHSAVVYGSSMFVFGGYTGDIYSNSNLKNKNDLFEYKFATGQWTEWKIEGRLPVARSAHGATVYSDKLWIFAGYDGNARLNDMWTIGLQDRELTCWEEVAQSGEIPPSCCNFPVAVCRDKMFVFSGQSGAKITNNLFQFEFKDKTWTRIPTEHLLRGSPPPPQRRYGHTMVAFDRHLYVFGGAADNTLPNELHCYDVDFQTWEVVQPSSDSEVGGAEVPERACASEEVPTLTYEERVGFKKSRDVFGLDFGTTSAKQPTQPASELPSGRLFHAAAVISDAMYIFGGTVDNNIRSGEMYRFQFSCYPKCTLHEDYGRLWESRQFCDVEFVLGEKEECVQGHVAIVTARSRWLRRKITQARERLAQKLEQEAAPVPREAPGVAAGGARPPLLHVAIREAEARPFEVLMQFLYTDKIKYPRKGHVEDVLLIMDVYKLALSFQLCRLEQLCRQYIEASVDLQNVLVVCESAARLQLSQLKEHCLNFVVKESHFNQVIMMKEFERLSSPLIVEIVRRKQQPPPRTPLDQPVDIGTSLIQDMKAYLEGAGAEFCDITLLLDGHPRPAHKAILAARSSYFEAMFRSFMPEDGQVNISIGEMVPSRQAFESMLRYIYYGEVNMPPEDSLYLFAAPYYYGFYNNRLQAYCKQNLEMNVTVQNVLQILEAADKTQALDMKRHCLHIIVHQFTKVSKLPTLRSLSQQLLLDIIDSLASHISDKQCAELGADI
notes: Expressed in HEK 293T, HeLa or U87 cells; used as cell lysate; also called LZTR1 wild type-FLAG; LZTR1 WT; not shown: FLAG tag at the C-terminus
CRYBG1
  binding result: binds
POLR3A
  binding result: binds
